Experimental data as given in patent publication US20240076392A1, “ANTI-CD123 BINDING MOLECULES AND USES THEREOF” (IGM Biosciences, Inc., priority 2021, published 2024).

Tests used:
[1] = molecular target: human CD123 on CHO cells expressing human CD123 (human) (UniProt P26951); experiment: flow cytometry on CHO cells expressing human CD123, 4-parameter fit (direct binding; column headed IC50)
[2] = molecular target: human CD123 on CHO cells expressing human CD123 (human) (UniProt P26951); experiment: flow cytometry on CHO cells expressing human CD123, 4-parameter fit

Chain of human CD123 on CHO cells expressing human CD123 (human) (P26951 19-378): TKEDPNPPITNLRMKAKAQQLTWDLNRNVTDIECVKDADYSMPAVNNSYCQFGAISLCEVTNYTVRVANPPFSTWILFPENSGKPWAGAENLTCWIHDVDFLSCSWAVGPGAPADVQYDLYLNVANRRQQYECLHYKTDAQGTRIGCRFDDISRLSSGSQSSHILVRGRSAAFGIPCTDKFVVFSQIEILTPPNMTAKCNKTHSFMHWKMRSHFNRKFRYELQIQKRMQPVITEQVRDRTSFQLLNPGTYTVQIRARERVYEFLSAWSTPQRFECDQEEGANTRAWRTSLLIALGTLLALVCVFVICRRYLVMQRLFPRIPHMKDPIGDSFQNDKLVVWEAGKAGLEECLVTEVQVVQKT

EC50 [1] [nM]	Max binding intensity (MFI) [2] [MFI]	EC50 (half-maximal binding concentration) [1] [nM]	Binder
11	910000		32716 IgG (antibody, V domains shown) VH: QIQLVQSGPELKKPGETVKISCKASGYIFTNYGMNWVKQAPGKSFKWMGWINTYTGESTYSADFKGRFAFSLETSASTAYLHINDLKNEDTATYFCARSGGYDPMDYWGQGTSVTVSS VL: DIVLTQSPASLAVSLGQRATISCRASESVDNYGNTFMHWYQQKPGQPPKLLIYRASNLESGIPARFSGSGSRTDFTLTINPVEADDVATYYCQQSNEDPPTFGAGTKLELK
	980000	6.8	h32716-4-2 IgG (antibody, V domains shown) VH: QVQLVQSGPELKKPGASVKVSCKASGYIFTNYGMNWVRQAPGQGLEWMGWINTYTGESTYSADFKGRFVFSLDTSVSTAYLQISSLKAEDTAVYYCARSGGYDPMDYWGQGTLVTVSS VL: DIQMTQSPSSLSASVGDRVTITCRASESVDNYGNTFMHWYQQKPGKAPKLLIYRASNLESGVPSRFSGSGSGTDFTFTISSLQPEDIATYYCQQSNEDPPTFGQGTKVEIK
	1e+06	11	h32716-6-2 IgG (antibody, V domains shown) VH: QVQLVQSGPELKKPGASVKVSCKASGYIFTNYGMNWVKQAPGQGFKWMGWINTYTGESTYSADFKGRFVFSLDTSVSTAYLQISSLKAEDTAVYYCARSGGYDPMDYWGQGTLVTVSS VL: DIQMTQSPSSLSASVGDRVTITCRASESVDNYGNTFMHWYQQKPGKAPKLLIYRASNLESGVPSRFSGSGSGTDFTFTISSLQPEDIATYYCQQSNEDPPTFGQGTKVEIK

Continued, binder first:

Binder	EC50 [1] [nM]	Max binding intensity (MFI) [2] [MFI]	EC50 (half-maximal binding concentration) [1] [nM]
h32716-1-1 IgG (antibody, V domains shown) VH: QVQLVQSGAEVKKPGSSVKVSCKASGYIFTNYGMNWVRQAPGQGLEWMGWINTYTGESTYSADFKGRVTITADESTSTAYMELSSLRSEDTAVYYCARSGGYDPMDYWGQGTLVTVSS VL: DIVMTQSPDSLAVSLGERATINCRASESVDNYGNTFMHWYQQKPGQPPKLLIYRASNLESGVPDRFSGSGSGTDFTLTISSLQAEDVAVYYCQQSNEDPPTFGQGTRLEIK		950000	7.4
h32716-2-1 IgG (antibody, V domains shown) VH: QVQLVQSGAEVKKPGSSVKVSCKASGYIFTNYGMNWVKQAPGQGLEWMGWINTYTGESTYSADFKGRFTFTLDESTSTAYMELSSLRSEDTAVYYCARSGGYDPMDYWGQGTLVTVSS VL: DIVMTQSPDSLAVSLGERATINCRASESVDNYGNTFMHWYQQKPGQPPKLLIYRASNLESGVPDRFSGSGSGTDFTLTISSLQAEDVAVYYCQQSNEDPPTFGQGTRLEIK		930000	11
h32716-3-1 IgG (antibody, V domains shown) VH: QVQLVQSGAEVKKPGSSVKVSCKASGYIFTNYGMNWVKQAPGQGFKWMGWINTYTGESTYSADFKGRFTFTLDESTSTAYMELSSLRSEDTAVYYCARSGGYDPMDYWGQGTLVTVSS VL: DIVMTQSPDSLAVSLGERATINCRASESVDNYGNTFMHWYQQKPGQPPKLLIYRASNLESGVPDRFSGSGSGTDFTLTISSLQAEDVAVYYCQQSNEDPPTFGQGTRLEIK		940000	10
h32716-5-2 IgG (antibody, V domains shown) VH: QVQLVQSGPELKKPGASVKVSCKASGYIFTNYGMNWVKQAPGQGLEWMGWINTYTGESTYSADFKGRFVFSLDTSVSTAYLQISSLKAEDTAVYYCARSGGYDPMDYWGQGTLVTVSS VL: DIQMTQSPSSLSASVGDRVTITCRASESVDNYGNTFMHWYQQKPGKAPKLLIYRASNLESGVPSRFSGSGSGTDFTFTISSLQPEDIATYYCQQSNEDPPTFGQGTKVEIK	7.2	1.1e+06	
